In US20160252497A1 (NGM BIOPHARMACEUTICALS, published 2016):

Assays:
[1] = target: FGFR4-KLB receptor complex (solid phase binding assay); assay: solid phase binding assay on the FGFR4-KLB receptor complex; bound ligand detected with a biotinylated FGF19-specific polyclonal antibody, absorbance at 450 nm
From the text: (§1) (B) Binding of M70 to FGFR4 by Biacore. Similar procedures to (A) were used. (C) Solid phase binding of M70 or FGF19 to FGFR4-KLB receptor complex. The bound ligands were detected using a biotinylated FGF19-specific polyclonal antibody. (D) Relative luciferase activity after stimulation with M70 or FGF19 in L6 cells transiently transfected with FGFR4 in the presence or absence of KLB. (E) M70 induces ERK phosphorylation in Hep3B cells. (F) M70 repressed Cyp7a1 expression in primary hepatocytes of mouse, rat, and human origin. Relative expression of Cyp7a1 mRNA in hepatocytes were determined by qRT-PCR and normalized to 18S RNA (mouse and rat) or actin (human) mRNA levels. (G) Repression of hepatic Cyp7a1 expression by M70 in mice. 12-week-old db/db mice were injected intraperitoneally with recombinant M70 or FGF19 protein. Mice were euthanized 4 hours after dosing and hepatic Cyp7a1 expression was evaluated by qRT-PCR and normalized to 18S RNA expression. Dose response curves of Cyp7a1 repression in mice were shown. All values represent mean±SEM.
To elucidate the molecular mechanism that underline M70's inability to induce liver tumors, the interaction of M70 to the known receptor complex of FGF19 was assessed. Surface plasmon resonance (SPR) analysis was used to measure direct binding of M70 or FGF19 to FGFR4. […]

[2] = target: Mouse FGFR4 and mouse KLB co-expressed on rat L6 cells (mouse, UniProt Q03142 17-799; Q99N32 1-1043); assay: cell-based or functional assay
Sequence of Mouse FGFR4 and mouse KLB co-expressed on rat L6 cells (Q99N32 whole entry, one chain of several): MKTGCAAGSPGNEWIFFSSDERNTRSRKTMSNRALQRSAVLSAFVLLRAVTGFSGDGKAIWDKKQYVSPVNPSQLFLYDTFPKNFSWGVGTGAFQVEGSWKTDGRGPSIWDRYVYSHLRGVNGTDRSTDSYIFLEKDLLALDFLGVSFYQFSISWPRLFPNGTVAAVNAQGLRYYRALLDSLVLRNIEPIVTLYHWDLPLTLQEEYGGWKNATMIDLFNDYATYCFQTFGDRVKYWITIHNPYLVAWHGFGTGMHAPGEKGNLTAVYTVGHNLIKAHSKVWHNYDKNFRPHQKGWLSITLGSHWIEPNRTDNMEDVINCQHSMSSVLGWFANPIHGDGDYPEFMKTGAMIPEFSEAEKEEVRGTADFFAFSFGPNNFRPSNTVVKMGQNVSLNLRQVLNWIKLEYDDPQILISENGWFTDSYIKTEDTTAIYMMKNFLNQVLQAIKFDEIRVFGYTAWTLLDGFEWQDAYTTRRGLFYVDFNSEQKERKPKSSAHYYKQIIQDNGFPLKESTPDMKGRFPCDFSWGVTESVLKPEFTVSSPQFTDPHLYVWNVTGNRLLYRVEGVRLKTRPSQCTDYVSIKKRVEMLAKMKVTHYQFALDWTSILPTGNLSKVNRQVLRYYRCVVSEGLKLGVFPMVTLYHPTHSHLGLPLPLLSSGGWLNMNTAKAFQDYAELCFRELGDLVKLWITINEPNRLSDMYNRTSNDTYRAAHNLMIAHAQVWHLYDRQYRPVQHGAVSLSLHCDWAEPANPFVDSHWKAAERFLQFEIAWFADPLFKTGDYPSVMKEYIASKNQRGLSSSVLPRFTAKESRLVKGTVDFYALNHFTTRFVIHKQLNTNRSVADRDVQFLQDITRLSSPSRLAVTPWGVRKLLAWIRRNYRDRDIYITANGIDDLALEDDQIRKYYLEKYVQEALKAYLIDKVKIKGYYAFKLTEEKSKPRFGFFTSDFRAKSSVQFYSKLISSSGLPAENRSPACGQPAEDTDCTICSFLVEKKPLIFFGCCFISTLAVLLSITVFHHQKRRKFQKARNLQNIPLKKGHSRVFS

[3] = target: Human FGFR4 and KLB expressed endogenously on Hep3B cells (human, UniProt P22455 22-802; Q86Z14 1-1044); assay: cell-based or functional assay
Sequence of Human FGFR4 and KLB expressed endogenously on Hep3B cells (P22455 22-802, chain 1 of 2): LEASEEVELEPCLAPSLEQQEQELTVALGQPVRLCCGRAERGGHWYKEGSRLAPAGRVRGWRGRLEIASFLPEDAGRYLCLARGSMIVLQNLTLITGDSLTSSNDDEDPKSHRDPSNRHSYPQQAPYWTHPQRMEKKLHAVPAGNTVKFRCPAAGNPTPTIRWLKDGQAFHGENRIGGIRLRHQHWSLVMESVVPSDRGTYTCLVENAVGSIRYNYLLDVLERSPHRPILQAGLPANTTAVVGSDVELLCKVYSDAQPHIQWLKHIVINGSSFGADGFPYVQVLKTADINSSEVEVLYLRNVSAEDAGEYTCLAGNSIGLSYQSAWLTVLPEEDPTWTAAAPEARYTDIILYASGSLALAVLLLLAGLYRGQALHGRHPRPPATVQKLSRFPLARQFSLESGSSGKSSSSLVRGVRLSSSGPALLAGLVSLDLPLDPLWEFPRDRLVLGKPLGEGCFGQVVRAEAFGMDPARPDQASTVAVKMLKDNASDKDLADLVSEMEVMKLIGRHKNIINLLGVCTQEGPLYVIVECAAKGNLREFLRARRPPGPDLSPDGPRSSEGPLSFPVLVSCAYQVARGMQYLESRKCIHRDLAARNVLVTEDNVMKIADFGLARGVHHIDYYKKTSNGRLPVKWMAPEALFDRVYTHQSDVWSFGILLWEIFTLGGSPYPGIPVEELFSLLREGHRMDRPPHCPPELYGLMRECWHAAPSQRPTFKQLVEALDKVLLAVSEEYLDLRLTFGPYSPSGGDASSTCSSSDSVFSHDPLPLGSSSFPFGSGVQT
Sequence of Human FGFR4 and KLB expressed endogenously on Hep3B cells (Q86Z14 whole entry, chain 2 of 2): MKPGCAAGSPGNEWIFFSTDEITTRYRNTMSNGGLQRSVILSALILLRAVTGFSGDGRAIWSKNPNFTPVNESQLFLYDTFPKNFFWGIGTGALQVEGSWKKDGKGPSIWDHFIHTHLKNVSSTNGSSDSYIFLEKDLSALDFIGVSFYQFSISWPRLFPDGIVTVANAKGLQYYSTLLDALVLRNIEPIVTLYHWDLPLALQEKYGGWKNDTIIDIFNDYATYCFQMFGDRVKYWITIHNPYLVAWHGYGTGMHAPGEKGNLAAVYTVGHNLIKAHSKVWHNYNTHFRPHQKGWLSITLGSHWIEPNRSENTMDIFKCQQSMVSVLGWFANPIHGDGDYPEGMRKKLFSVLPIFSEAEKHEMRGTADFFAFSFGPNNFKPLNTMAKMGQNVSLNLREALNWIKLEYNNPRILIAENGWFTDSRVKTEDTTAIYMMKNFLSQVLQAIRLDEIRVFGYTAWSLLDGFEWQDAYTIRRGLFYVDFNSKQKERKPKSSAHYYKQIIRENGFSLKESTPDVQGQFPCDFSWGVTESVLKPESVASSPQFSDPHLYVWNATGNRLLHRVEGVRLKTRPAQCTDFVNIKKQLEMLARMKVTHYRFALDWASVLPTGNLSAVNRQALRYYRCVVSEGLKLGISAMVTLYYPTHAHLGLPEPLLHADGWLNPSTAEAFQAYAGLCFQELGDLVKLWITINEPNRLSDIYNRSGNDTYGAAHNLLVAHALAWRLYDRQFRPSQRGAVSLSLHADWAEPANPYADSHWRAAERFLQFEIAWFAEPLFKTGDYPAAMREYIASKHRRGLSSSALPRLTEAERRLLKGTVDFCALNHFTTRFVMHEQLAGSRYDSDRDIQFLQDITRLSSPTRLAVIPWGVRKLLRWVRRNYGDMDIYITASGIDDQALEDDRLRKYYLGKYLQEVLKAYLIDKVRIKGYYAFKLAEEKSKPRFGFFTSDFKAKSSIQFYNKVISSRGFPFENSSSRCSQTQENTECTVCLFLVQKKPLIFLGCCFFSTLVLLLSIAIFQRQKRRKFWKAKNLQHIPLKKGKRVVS

[4] = target: Rat FGFR4 on primary rat hepatocytes (rat, UniProt Q498D6 17-800); assay: cell-based or functional assay
Sequence of Rat FGFR4 on primary rat hepatocytes (Q498D6 17-800): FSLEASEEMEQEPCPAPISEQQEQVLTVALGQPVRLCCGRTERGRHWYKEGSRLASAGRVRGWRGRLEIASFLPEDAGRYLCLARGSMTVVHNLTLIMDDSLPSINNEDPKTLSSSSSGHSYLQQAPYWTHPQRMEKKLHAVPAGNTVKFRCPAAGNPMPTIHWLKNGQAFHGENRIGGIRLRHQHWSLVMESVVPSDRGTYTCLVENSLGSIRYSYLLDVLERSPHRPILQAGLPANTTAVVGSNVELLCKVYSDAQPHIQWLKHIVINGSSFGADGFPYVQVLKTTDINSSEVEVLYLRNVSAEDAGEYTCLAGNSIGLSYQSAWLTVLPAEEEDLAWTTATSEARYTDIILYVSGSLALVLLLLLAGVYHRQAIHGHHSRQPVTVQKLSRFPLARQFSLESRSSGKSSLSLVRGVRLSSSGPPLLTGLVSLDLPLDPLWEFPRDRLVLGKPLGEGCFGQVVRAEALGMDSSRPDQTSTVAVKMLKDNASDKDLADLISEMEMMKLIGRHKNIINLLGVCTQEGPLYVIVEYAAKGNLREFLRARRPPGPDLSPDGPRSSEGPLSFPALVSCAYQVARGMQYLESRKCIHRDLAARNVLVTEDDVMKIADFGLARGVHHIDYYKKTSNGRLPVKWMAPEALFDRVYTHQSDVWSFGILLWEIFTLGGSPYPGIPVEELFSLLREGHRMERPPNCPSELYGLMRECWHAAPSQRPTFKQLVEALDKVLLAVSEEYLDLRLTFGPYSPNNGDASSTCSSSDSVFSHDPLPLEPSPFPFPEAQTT

[5] = target: Human FGFR4 on primary human hepatocytes (human, UniProt P22455 22-802); assay: cell-based or functional assay
Sequence of Human FGFR4 on primary human hepatocytes (P22455 22-802): as the sequence (P22455 22-802, chain 1 of 2) above

[6] = target: T1, Mouse FGFR4 on cells (L6 cells transfected with FGFR4 alone; primary mouse hepatocytes) (mouse, UniProt Q03142 17-799); assay: cell-based or functional assay
T1 sequence (looked up): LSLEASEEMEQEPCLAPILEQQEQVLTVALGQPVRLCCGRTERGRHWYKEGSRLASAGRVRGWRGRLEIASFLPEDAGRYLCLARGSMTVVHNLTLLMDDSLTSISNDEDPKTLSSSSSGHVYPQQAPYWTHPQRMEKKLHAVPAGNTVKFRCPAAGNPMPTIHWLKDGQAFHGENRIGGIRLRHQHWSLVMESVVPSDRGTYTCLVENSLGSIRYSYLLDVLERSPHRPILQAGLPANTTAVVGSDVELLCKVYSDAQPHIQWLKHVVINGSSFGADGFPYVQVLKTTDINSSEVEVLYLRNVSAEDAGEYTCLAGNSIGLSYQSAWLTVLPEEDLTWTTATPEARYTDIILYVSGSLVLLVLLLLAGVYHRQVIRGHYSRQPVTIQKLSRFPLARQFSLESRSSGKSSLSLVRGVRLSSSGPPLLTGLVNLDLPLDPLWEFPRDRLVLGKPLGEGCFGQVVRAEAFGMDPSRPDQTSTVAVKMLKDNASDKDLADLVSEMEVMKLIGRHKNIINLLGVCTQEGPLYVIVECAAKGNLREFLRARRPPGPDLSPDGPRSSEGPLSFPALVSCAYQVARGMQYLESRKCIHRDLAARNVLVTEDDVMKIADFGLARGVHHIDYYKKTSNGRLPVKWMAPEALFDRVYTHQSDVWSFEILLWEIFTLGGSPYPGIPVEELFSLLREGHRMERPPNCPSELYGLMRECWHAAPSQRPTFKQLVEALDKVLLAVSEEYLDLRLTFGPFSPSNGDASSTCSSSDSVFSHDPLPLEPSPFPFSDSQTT

[7] = target: T2, Fc fusion protein of the extracellular domain (ECD) of FGFR4; assay: Biacore SPR, ligand flowed over chip coated with FGFR4 ECD-Fc, steady state fit
T2 construct: extracellular domain; Immobilized on Biacore flow cells; also called FGFR4-Fc chimeric protein; FGFR4-Fc
T2 sequence (P22455 22-369): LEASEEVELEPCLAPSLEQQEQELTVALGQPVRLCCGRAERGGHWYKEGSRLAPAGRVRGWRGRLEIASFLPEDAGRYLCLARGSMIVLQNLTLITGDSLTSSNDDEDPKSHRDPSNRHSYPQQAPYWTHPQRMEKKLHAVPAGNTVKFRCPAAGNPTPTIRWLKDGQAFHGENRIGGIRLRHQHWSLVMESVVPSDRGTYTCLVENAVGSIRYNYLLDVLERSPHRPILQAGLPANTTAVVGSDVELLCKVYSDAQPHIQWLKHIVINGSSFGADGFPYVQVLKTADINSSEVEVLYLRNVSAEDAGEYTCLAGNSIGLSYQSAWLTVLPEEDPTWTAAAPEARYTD
From the text: as §1, with “FIGS. 9A-9G depicts M70 binding and activation of FGFR4 in vitro. (A) Biacore SPR assay of the interaction between FGF19 and FGFR4-Fc chimeric proteins immobilized on flow cells. […] (B)” for “(B)”
To elucidate the molecular mechanism that underline M70's inability to induce liver tumors, the interaction of M70 to the known receptor complex of FGF19 was assessed. […]

[8] = target: T3, KLB (Klotho-beta), as used in the Biacore assay; assay: Biacore (data not shown)
T3 construct: The form of KLB in the assay is not described; also called Klotho-β

Sequence of FGFR4-KLB receptor complex (solid phase binding assay) (chain, as listed by the source, chain 1 of 2): as the sequence (P22455 22-369) above
Sequence of FGFR4-KLB receptor complex (solid phase binding assay) (chain, as listed by the source, chain 2 of 2): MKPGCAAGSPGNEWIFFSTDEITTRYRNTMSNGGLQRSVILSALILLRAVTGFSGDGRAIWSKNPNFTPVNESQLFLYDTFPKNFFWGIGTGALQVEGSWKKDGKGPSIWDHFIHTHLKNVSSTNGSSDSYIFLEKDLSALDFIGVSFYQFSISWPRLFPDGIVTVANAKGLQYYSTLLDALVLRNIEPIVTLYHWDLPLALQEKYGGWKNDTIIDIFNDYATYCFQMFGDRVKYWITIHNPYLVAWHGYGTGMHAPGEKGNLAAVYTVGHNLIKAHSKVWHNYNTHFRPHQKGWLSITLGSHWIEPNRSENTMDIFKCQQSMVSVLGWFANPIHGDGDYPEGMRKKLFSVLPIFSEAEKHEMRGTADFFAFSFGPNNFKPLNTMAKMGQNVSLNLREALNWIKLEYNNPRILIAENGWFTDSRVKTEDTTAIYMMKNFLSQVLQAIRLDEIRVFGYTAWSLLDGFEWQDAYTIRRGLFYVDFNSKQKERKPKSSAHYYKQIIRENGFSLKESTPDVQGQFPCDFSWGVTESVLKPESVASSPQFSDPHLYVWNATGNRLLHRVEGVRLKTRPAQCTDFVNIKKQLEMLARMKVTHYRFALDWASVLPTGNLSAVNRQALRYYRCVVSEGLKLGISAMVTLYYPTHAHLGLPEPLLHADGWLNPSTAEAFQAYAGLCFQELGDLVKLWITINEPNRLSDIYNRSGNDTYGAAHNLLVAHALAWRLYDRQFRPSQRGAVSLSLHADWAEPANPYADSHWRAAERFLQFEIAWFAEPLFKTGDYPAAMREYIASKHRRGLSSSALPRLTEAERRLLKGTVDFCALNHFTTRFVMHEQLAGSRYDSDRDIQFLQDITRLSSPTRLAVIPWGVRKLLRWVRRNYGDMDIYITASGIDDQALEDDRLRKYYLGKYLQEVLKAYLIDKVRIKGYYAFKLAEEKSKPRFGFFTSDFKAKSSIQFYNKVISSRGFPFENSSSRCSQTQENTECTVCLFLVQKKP

EC50 (read off the curve) [1]: ~2000 pM | GAL-Elk1 luciferase reporter activity in L6 cells co-expressing FGFR4 and KLB (EC50) [2]: 38 pM | phosphorylation and activation of ERK in Hep3B cells (EC50) [3]: 380 pM | repression of Cyp7a1 expression in primary rat hepatocytes (IC50) [4]: 0.49 pM | repression of Cyp7a1 expression in primary human hepatocytes (IC50) [5]: 6.8 pM | GAL-Elk1 luciferase reporter activity in L6 cells transfected with FGFR4 alone (reduction in potency against FGFR4 plus KLB) [6]: 500 fold | repression of Cyp7a1 expression in primary mouse hepatocytes (IC50) [6]: 0.64 pM | Kd [7]: 134000 pM | Kd [8]: 24.1 pM
B1: M70 (FGF19 variant carrying 3 amino acid substitutions A30S, G31S, H33L and a 5-amino acid deletion) (ligand)
chain: MRDSSPLVHYGWGDPIRLRHLYTSGPHGLSSCFLRIRADGVVDCARGQSAHSLLEIKAVALRTVAIKGVHSVRYLCMGADGKMQGLLQYSEEDCAFEEEIRPDGYNVYRSEKHRLPVSLSSAKQRQLYKNRGFLPLSHFLPMLPMVPEEPEDLRGHLESDMFSSPLETDSMDPFGLVTGLEAVRSPSFEK
notes: Engineered variant of human FGF19; also called FGF19 variant M70; recombinant M70 protein
